Reference: a protein production outcome set (Wang et al. 2014)

Assay: label from the status in PepcDB records

Row | Sequence | protein production
1 | TGGLAIIQSMKHKLPPSERKLADYILAHPHKAIESTVNEISALANSSDAAVIRLCKSLGLKGFQDLKMRVAGDLAKPTFQGYRDIVPHEPLPSISEKTAGNAIQAI | failed
2 | YTEQPIDLVPTQPLPNASFDNFKLTCSNTKFADDLNQMTGFTKPASRELSVTFFPDLNGDVVAIDYRHYSASFKKGAKLLHKPIVWHINQATTKTTFKPNTWCLRCLWSTKPVDT | not failed
3 | MTNSGIILVASAALFWGLSGGIAGILINDDWNAVLVSFCRGAVGLIFVLMWLVLRPRNSGFTNGKLWLWSIIAGFGVSGNFAFYFFSISESSVAVAATLMYCAPIFVYLISFAIKIERPTLSKCAAILLVMAGVVLLTRVYQIDSSGITPIGVIAGLLSGMSLALFIFGFKYAARQGSPQAVLAIAFSTLTLALGTLIDIEEAGRVVNSADWPLFAILGVLGGGASFILYIIGLRRTLPALASIVATIEPVTAALFGVIILGEVLAYTQVLGMLIILATVTALGVYSSKQ | failed
4 | MVASAPASAGTKGVIRQVIGPVLDVEFPAGKLPKIYNALRVETKNTAGQDVALTAEVQQLLGDHRVRAVAMSGTDGLVRGMEIADTGAPISVPVGEATLGRIFNVLGEPVDEQGPVNASATAPIHRDAPNLTELETKPKVFETGIKVIDLLAPYRQGGKVGLFGGAGVGKTVLIQELINNIAKEHGGVSVFGGVGERTREGNDLYEEFKESGVINADDLSKSKVALCYGQMNEPPGARMRVGLSALTMAEHFRDVNKQDVLLFVDNIFRFVQAGSEVSALLGRMPSAVGYQPTLGTDVGALQERVASTVEGSITSIQAVYVPADDLTDPAPATTFAHLDATTVLNRALASKGIYPAVDPLDSTSTMLQPAVVGDEHYRTARLVQSTLQRYKELQDIIAILGLDELSEDDRQTVDRARKVEKFLSQPFFVAEIFTGMPGKYVKLEETIAGFNQILAGELDHLPEAAFYLVGSIEEAKAKAEKIAAETK | failed
5 | MDWGTELWDQFEVLERHTQWGLDLLDRYVKFVKERTEVEQAYAKQLRSLVKKYLPKRPAKDDPESKFSQQQSFVQILQEVNDFAGQRELVAENLSVRVCLELTKYSQEMKQERKMHFQEGRRAQQQLENGFKQLENSKRKFERDCREAEKAAQTAERLDQDINATKADVEKAKQQAHLRSHMAEESKNEYAAQLQRFNRDQAHFYFSQMPQIFDKLQDMDERRATRLGAGYGLLSEAELEVVPIIAKCLEGMKVAANAVDPKNDSHVLIELHKSGFARPGDVEFEDFSQPMNRAPSDSSLGTPSDGRPELRGPGRSRTKRWPFGKKNKTVVTEDFSHLPPEQQRKRLQQQLEERSRELQKEVGQREALKKMKDVYEKTPQMGDSASLEPQIAETLSNIERLKLEVQKYEAWLAEAESRVLSNRGDSLSRHARPPDPPASAPPDSSSNSASQDTKESSEEPPSEESQDTPIYTEFDEDFEEEPTSPIGHCVAIYHFEGSSEGTISMAEGEDLSLMEEDKGDGWTRVRRKEGGEGYVPTSYLRVTLN | not failed
6 | MSNTTRQAGSQGSLDAFFKITQRGSNVRQEVLAGLTTFLAMVYSVIVVPSMLGKAGFPPTAVFVATCLVAGLGSLLMGLWANLPMAIGCAISLTAFTAFSLVLGQQISIPVALGAIFLMGVLFTIISVTGIRSWILRNLPLGVAHGTGIGIGLFLLIIAANGVGLVVKNPIDGLPVALGNFTSFPVIMSLLGLAATIGLEKRRVPGGILLVIVVISILGLIFDPNVKYAGFFALPSLTAADGSSLIFSLDIMGALQPLVLPSVLALVMTAVFDATGTIRAVAGQANLLDKDGQIINGGKALTADSVSSIFCSLVGTSPAAVYIESAAGTAAGGKTGLTATVVGVLFLLLLFVSPLAYLVPGYATAPALMYVGLLMLGNVSKLNFDDFVDAMSGLVCAVFIVLTCNIVTGIMLGFGALVLGRICSGEWRKLNIGTVIIAVALVAFYAGGWAL | failed
7 | MSFASETKKELTHMDVSDSDAKVELAAFIRMNGAISFSNQLVIMDVQTENAAIARRMYQLLKDLYEVPIELLVRRKMKLKKNNVYIVRLKSGTRGILEDLRILEPPMTFTKSIDRGFVKKRSAKRAYLRGAFLASGSVNNPETSSYHLEIFSVYEEHNEAICALMNQFDLNARTLERKNGFITYLKEAEKITEFLSIIGATSALLHFEDVRIMRDMRNSVNRLVNCETANLNKTINAAVRQIDNIKYIQSTVGLEALPERLREIAALRIANEDVTLKELGEMLTTGQVSKSGINHRLRKLDQIAERLRSGETPAQVGLKVSNS | failed
